In doi:10.1101/422709 (bioRxiv, 2019):

B1: phosphoribulokinase from Arabidopsis thaliana (enzyme, UniProt P25697 47-395, looked up)
chain: AQETIVIGLAADSGCGKSTFMRRLTSVFGGAAKPPKGGNPDSNTLISDTTTVICLDDYHSLDRYGRKEQKVTALDPRANDFDLMYEQVKALKNGIAVEKPIYNHVTGLLDPPELIQPPKILVIEGLHPMFDERVRDLLDFSIYLDISNEVKFAWKIQRDMAERGHSLESIKASIEARKPDFDAFIDPQKQYADAVIEVLPTTLIPDDNEGKVLRVRLIMKEGVKYFSPVYLFDEGSTISWIPCGRKLTCSYPGIKFNYEPDSYFDHEVSVLEMDGQFDRLDELIYVESHLSNLSTKFYGEVTQQMLKHADFPGSNNGTGLFQTIVGLKIRDLYEQLIANKATARAEAKA
B2: phosphoribulokinase from Chlamydomonas reinhardtii (enzyme, UniProt P19824 32-375, looked up)
chain: DKDKTVVIGLAADSGCGKSTFMRRMTSIFGGVPKPPAGGNPDSNTLISDMTTVICLDDYHCLDRNGRKVKGVTALAPEAQNFDLMYNQVKALKEGKSVDKPIYNHVSGLIDAPEKIESPPILVIEGLHPFYDKRVAELLDFKIYLDISDDIKFAWKIQRDMAERGHSLESIKSSIAARKPDFDAYIDPQKKDADMIIQVLPTQLVPDDKGQYLRVRLIMKEGSKMFDPVYLFDEGSTISWIPCGRKLTCSFPGIKMFYGPDTWYGQEVSVLEMDGQFDKLEELIYVESHLSNTSAKFYGEITQQMLKNSGFPGSNNGTGLFQTIVGLKVREVYERIVKKDVVPV

Molecular target: the molecule itself
Experiment: crystal structure

| Protein | stoichiometry N |
| --- | --- |
| B1 | 2 |
| B2 | 2 |
